Here are results for two substances from patent US20160296633A1.

Assay [1] deals with CD74 (invariant chain, Ii) (human) (UniProt P04233). Nature of the assay: flow cytometry, permeabilized HuH-7 cells. (In general: In flow cytometry, cells or beads pass a laser one at a time.)
For assay [2] the target is unchanged. As to the kind of experiment: flow cytometry, surface only, Hs746T cells.
For assay [3] the target is unchanged. Nature of the assay: flow cytometry, permeabilized Raji cells.
For assay [4] the target is unchanged. Nature of the assay: flow cytometry, permeabilized Hep-G2 cells.
For assay [5] the target is unchanged. As to the kind of experiment: flow cytometry, surface only, HuH-7 cells.
The target is the same in assay [6]. As to the kind of experiment: flow cytometry, surface only, Hep-G2 cells.
Assay [7] shares this target. Nature of the assay: flow cytometry, permeabilized Hs746T cells.
For assay [8] the target is unchanged. Nature of the assay: flow cytometry, permeabilized NCI-N87 cells.
The target is the same in assay [9]. Nature of the assay: flow cytometry, surface only, NCI-N87 cells.
For assay [10] the target is unchanged. Nature of the assay: flow cytometry, permeabilized A-375 cells.
Assay [11] shares this target. As to the kind of experiment: flow cytometry, surface only, Raji cells.
Assay [12] has the same target. As to the kind of experiment: flow cytometry, permeabilized Capan-1 cells.
Assay [13] shares this target. As to the kind of experiment: flow cytometry, surface only, Capan-1 cells.
Assay [14] shares this target. As to the kind of experiment: flow cytometry, surface only, A-375 cells.
The target in assay [15] is human trophoblast cell-surface antigen (Trop-2) (human) (UniProt P09758). Nature of the assay: flow cytometry, surface, NCI-N87 cells.
Sequence of human trophoblast cell-surface antigen (Trop-2) (human) (P09758 27-323): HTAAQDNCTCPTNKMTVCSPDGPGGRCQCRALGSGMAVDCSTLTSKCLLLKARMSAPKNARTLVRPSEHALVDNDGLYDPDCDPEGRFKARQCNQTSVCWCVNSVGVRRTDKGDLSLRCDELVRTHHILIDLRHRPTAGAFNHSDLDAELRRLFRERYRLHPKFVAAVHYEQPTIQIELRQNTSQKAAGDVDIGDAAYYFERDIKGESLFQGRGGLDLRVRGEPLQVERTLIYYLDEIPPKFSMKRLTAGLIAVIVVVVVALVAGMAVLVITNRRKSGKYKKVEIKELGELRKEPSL
For assay [16] the target is unchanged. As to the kind of experiment: FACS on Calu-3 cells.
The target is the same in assay [17]. As to the kind of experiment: FACS on Calu-3 cells; background 4.7.
For assay [18] the target is unchanged. Nature of the assay: flow cytometry, surface, Capan-1 cells.
The target is the same in assay [19]. Nature of the assay: FACS on PC-3 cells; background 5.5.
Assay [20] has the same target. Nature of the assay: FACS on BxPC-3 cells.
Assay [21] has the same target. Nature of the assay: FACS on COLO 205 cells.
For assay [22] the target is unchanged. Nature of the assay: FACS on Capan-1 cells.
Assay [23] has the same target. Nature of the assay: FACS on Capan-1 cells; background 5.0.
The target is the same in assay [24]. As to the kind of experiment: FACS on PC-3 cells.
The target is the same in assay [25]. As to the kind of experiment: FACS on BxPC-3 cells; background 3.1.
The target is the same in assay [26]. Nature of the assay: FACS on SK-MES-1 cells; background 3.5.
The target is the same in assay [27]. Nature of the assay: FACS on COLO 205 cells; background 4.5.
Assay [28] has the same target. Nature of the assay: cell-based or functional assay.
For assay [29] the target is unchanged. As to the kind of experiment: FACS on SK-MES-1 cells.

Sequence of CD74 (invariant chain, Ii) (human) (P04233 whole entry, change not shown): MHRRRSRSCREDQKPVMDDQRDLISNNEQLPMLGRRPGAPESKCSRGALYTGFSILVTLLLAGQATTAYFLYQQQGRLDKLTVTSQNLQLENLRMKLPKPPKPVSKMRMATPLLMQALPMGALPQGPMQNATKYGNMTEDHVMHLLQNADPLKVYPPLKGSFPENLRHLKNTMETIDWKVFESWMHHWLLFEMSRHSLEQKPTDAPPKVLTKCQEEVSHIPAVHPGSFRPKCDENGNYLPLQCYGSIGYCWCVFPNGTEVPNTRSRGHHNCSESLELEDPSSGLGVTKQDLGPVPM

With “milatuzumab (hLL1), humanized anti-CD74 IgG1 (antibody)”, the MFI ratio hLL1:bkgd (surface and cytoplasmic) worked out at 28.5 in [1]; 28.6 in [3]; 31.2 in [4]; 28.8 in assay [7]; 36.7 in assay [8]; 30.8 in [10]. Besides, in assay [12], the MFI ratio hLL1:bkgd (surface and cytoplasmic) worked out at 49.6. For the same substance, the MFI ratio hLL1:bkgd (surface) stood at 2.1 in [2]; 1.6 in [5]; 1.5 in [6]; 1.3 in assay [9]; 19.6 in [11]; 1.8 in [13]. The MFI ratio hLL1:bkgd (surface) in assay [14] was 5.3.
Turning to “humanized RS7 IgG (hRS7), anti-Trop-2 (antibody)”, the MFI (surface) in assay [15] was found to be 795; in assay [18] it was 237. Moreover, the percent positive in assay [16] came to 99.6%; in assay [20], 98.3%; in [21], 99.5%; in assay [22] it was 94.2%; in [24] it was 73.6%; in [29] it was 91.2%. The median fluorescence in assay [17] amounted to 282; in assay [19], 46.2; in [23], 100; in [25] it was 26.4; in assay [26], 44; in [27], 142. The ADCC, specific lysis of BxPC-3 target cells by PBMCs (effector to target 100:1), antibody at 33.3 nM in assay [28] was 8.5%.
